Reference: PMC3235159

What was measured:
[1] = target: Purified LRP1 (LDL receptor-related protein 1) (UniProt Q07954); assay: SPR; purified LRP1 immobilised on a CM5 chip by amine coupling (5.8 fmol/mm^2, 3,500 RU); TGF-β2 flowed at 6, 12, 15, 50, 100 and 200 nM; HBS-P pH 7.4, 0.005% Tween 20, 1 mM CaCl2, 20 µl/min, 25°C; Rmax of pseudo-first order fits replotted against concentration and fit to a single class of sites
[2] = target: TGF-β1 (Homo sapiens) (UniProt P01137); conditions: cited from earlier work
Chain of TGF-β1 (Homo sapiens) (P01137 279-390): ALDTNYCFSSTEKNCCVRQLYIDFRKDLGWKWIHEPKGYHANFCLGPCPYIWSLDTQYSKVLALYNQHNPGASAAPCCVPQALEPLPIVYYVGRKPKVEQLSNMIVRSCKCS

Chain of Purified LRP1 (LDL receptor-related protein 1) (Q07954 20-4544): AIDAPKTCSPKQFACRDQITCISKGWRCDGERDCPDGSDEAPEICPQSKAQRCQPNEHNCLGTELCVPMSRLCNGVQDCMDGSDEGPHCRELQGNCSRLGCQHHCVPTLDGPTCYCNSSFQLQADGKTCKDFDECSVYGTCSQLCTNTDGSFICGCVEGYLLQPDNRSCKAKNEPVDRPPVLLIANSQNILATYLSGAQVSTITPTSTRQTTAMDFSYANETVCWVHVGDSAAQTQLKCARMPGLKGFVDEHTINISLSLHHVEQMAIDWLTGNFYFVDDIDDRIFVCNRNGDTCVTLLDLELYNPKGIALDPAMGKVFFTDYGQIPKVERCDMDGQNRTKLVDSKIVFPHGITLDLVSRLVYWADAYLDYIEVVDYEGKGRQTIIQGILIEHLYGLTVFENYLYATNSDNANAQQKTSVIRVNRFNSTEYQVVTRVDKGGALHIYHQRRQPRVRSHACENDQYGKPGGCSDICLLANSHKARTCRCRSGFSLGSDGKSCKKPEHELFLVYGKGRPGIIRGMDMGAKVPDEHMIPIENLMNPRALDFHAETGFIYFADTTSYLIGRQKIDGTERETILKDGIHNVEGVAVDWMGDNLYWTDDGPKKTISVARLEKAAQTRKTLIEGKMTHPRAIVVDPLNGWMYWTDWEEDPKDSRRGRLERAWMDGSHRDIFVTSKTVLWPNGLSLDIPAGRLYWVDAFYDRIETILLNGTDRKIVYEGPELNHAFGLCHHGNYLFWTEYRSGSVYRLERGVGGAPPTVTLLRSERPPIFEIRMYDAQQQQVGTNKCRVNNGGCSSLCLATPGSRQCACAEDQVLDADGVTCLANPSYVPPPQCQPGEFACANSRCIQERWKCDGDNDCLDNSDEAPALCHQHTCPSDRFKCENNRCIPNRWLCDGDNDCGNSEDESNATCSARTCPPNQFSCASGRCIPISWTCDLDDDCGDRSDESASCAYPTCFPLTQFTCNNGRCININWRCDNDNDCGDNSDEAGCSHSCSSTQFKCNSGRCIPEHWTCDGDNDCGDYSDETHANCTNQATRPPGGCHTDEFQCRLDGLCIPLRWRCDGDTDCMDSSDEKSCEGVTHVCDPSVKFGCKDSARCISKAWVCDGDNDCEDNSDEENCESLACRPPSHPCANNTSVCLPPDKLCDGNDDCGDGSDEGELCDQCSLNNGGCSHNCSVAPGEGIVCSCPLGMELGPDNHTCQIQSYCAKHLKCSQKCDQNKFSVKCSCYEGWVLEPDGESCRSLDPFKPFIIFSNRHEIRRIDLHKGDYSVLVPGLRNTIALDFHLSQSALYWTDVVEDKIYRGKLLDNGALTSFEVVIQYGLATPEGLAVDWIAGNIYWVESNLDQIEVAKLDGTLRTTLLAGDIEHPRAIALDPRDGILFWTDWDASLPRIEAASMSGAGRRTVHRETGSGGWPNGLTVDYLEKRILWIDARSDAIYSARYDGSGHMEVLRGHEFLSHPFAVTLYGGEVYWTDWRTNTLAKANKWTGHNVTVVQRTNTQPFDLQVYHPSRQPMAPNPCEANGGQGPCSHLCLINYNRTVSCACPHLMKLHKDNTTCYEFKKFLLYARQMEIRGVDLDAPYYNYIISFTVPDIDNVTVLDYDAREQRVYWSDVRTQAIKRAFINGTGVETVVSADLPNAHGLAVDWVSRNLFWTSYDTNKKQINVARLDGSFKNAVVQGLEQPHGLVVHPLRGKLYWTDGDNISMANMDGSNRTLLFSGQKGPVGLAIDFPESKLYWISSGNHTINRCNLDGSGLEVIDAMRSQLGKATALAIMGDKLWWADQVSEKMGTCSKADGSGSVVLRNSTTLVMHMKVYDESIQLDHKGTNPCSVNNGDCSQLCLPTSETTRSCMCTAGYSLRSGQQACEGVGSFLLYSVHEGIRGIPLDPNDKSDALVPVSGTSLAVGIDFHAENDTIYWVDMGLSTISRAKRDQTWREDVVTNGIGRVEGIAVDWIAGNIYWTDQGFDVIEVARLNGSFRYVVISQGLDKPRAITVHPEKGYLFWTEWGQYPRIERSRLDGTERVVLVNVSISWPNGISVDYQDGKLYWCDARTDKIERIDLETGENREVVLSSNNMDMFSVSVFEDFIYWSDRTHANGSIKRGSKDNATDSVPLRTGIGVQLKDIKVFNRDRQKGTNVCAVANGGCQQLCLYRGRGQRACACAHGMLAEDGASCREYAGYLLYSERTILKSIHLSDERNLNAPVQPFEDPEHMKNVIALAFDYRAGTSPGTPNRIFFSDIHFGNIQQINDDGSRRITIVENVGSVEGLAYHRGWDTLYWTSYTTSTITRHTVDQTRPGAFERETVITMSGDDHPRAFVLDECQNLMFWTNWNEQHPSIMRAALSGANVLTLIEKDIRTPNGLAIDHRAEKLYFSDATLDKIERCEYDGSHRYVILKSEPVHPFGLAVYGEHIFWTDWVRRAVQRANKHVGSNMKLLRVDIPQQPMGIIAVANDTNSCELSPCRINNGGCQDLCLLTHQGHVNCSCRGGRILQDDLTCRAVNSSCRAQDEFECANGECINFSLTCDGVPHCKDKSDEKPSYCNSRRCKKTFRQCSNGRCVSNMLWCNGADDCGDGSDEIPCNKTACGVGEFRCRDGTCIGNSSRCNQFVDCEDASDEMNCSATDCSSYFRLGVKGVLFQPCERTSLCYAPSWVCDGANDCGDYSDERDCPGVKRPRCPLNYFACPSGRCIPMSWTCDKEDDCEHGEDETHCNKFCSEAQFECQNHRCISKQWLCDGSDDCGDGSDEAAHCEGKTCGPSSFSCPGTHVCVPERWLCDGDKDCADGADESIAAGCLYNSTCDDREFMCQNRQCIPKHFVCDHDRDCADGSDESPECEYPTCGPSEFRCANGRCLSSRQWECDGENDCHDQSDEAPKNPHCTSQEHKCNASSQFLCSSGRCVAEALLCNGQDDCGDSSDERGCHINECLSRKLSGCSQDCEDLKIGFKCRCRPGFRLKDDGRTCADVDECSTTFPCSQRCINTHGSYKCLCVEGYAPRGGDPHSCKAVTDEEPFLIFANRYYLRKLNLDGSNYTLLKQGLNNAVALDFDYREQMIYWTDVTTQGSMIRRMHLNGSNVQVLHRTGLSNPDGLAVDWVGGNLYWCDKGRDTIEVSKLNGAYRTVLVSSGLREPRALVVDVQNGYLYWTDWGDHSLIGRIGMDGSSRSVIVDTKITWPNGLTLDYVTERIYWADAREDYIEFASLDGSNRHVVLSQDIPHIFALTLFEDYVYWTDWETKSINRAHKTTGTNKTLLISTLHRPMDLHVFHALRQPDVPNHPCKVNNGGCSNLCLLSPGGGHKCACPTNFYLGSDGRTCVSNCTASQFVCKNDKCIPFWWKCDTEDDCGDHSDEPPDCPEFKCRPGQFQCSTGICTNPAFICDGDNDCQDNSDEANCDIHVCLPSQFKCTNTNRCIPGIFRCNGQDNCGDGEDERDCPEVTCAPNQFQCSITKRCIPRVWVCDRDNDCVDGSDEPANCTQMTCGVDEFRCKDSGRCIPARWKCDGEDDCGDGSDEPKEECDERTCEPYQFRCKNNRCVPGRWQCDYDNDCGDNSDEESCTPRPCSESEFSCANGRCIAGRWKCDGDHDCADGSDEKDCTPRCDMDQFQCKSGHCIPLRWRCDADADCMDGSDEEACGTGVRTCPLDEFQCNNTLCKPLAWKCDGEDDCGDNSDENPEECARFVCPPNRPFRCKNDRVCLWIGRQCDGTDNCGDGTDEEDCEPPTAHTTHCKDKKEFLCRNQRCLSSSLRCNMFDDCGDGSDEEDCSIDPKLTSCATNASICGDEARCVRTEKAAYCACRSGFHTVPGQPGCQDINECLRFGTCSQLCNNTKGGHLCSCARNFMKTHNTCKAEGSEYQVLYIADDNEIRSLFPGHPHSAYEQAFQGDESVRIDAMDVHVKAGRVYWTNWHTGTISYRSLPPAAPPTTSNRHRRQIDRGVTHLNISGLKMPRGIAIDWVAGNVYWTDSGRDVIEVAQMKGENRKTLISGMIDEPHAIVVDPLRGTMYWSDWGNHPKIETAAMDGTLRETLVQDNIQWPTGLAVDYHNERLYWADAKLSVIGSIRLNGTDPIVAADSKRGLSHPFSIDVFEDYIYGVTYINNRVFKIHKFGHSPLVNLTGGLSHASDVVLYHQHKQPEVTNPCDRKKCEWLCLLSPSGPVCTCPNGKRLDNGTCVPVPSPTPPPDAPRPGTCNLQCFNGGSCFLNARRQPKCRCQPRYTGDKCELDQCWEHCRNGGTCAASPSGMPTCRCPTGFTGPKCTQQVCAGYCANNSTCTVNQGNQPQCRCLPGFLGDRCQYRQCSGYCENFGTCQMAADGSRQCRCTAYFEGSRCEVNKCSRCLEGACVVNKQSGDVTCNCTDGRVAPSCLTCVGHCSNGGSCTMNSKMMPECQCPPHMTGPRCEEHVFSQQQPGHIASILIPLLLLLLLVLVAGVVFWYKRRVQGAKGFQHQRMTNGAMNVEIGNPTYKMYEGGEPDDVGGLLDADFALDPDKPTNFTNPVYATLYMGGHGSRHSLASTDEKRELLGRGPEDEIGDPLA
Chain of LRP1 (Q07954 20-4544): as above

Kd [1] [nM]	Substance	Kd [2] [nM]
222	TGF-β2 (Sigma) (ligand)	
	LRP1 (from UniProt Q07954)	157
